According to publication PMC9352680, “A comprehensive thermodynamic model for RNA binding by the Saccharomyces cerevisiae Pumilio protein PUF4”:
Substitutions are numbered along the chain they refer to. Names may count otherwise.

T1: PUF4 RNA-binding domain (Saccharomyces cerevisiae, UniProt P25339 537-888)
T1 sequence: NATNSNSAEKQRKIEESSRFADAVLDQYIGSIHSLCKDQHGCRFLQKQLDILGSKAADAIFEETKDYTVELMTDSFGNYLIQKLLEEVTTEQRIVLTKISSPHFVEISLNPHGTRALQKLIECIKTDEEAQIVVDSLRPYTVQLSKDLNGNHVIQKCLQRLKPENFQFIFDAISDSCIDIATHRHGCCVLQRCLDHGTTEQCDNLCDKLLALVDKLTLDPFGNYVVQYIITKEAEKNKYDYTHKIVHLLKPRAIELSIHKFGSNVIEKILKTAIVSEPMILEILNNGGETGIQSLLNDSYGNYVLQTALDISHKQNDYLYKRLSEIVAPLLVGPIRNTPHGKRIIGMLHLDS

B1: Id_ii_S2_P3E.2_K3.1_C3.2_[C-2G]_[T-1G]_H3.1_A3.1_F3.1_T3.2_[T9A]_[A10G] (ssRNA)
RNA: UUUGAUUAAUAUGAUAUCGUUCUUUCUGGUGUAUAUAAGUUCUUUCUCGAUAUCAUAUUAAUCUUU
B2: Id_ii_S2_P3E.2_K3.1_C3.2_[C-2T]_[T-1G]_H3.1_A3.1_F3.1_T3.2_[A10C] (ssRNA)
RNA: B1 RNA with G28U, A38U, G39C
B3: Id_ii_S2_P3E.2_K3.1_C3.2_[C-2T]_[T-1G]_H3.1_A3.1_F3.1_T3.2_[T9C]_[A10C] (ssRNA)
RNA: B1 RNA with G28U, A38C, G39C
B4: Id_ii_S2_P3E.2_K3.1_C3.2_[C-2T]_[T-1C]_H3.1_A3.1_F3.1_T3.2_[T9C]_[A10T] (ssRNA)
RNA: B1 RNA with G28U, G29C, A38C, G39U
B5: Id_ii_S2_P3E.2_K3.1_C3.2_[C-2T]_[T-1C]_H3.1_A3.1_F3.1_T3.2_[A10T] (ssRNA)
RNA: B1 RNA with G28U, G29C, A38U, G39U
B6: Id_ii_S2_P3E.2_K3.1_C3.2_[C-2T]_[T-1A]_H3.1_A3.1_F3.1_T3.2_[T9A]_[A10C] (ssRNA)
RNA: B1 RNA with G28U, G29A, G39C
B7: Id_ii_S2_P3E.2_K3.1_C3.2_[C-2G]_H3.1_A3.1_F3.1_T3.2_[T9A]_[A10G] (ssRNA)
RNA: B1 RNA with G29U
B8: Id_ii_S2_P3E.2_K3.1_C3.2_[C-2T]_[T-1A]_H3.1_A3.1_F3.1_T3.2_[T9G]_[A10C] (ssRNA)
RNA: B1 RNA with G28U, G29A, A38G, G39C
B9: Id_ii_S2_P3E.2_K3.1_C3.2_[C-2G]_[T-1G]_H3.1_A3.1_F3.1_T3.2_[A10G] (ssRNA)
RNA: B1 RNA with A38U
B10: Id_ii_S2_P3E.2_K3.1_C3.2_[C-2T]_[T-1A]_H3.1_A3.1_F3.1_T3.2_[T9A]_[A10T] (ssRNA)
RNA: B1 RNA with G28U, G29A, G39U
B11: Id_ii_S2_P3E.2_K3.1_C3.2_[C-2T]_[T-1G]_H3.1_A3.1_F3.1_T3.2_[A10T] (ssRNA)
RNA: B1 RNA with G28U, A38U, G39U
B12: Id_ii_S2_P3E.2_K3.1_C3.2_[C-2T]_[T-1C]_H3.1_A3.1_F3.1_T3.2_[T9C]_[A10G] (ssRNA)
RNA: B1 RNA with G28U, G29C, A38C
B13: Id_ii_S2_P3E.2_K3.1_C3.2_[C-2T]_[T-1G]_H3.1_A3.1_F3.1_T3.2_[T9G]_[A10C] (ssRNA)
RNA: B1 RNA with G28U, A38G, G39C
B14: Id_ii_S2_P3E.2_K3.1_C3.2_[C-2G]_[T-1G]_H3.1_A3.1_F3.1_T3.2_[T9A]_[A10T] (ssRNA)
RNA: B1 RNA with G39U
B15: Id_ii_S2_P3E.2_K3.1_C3.2_[C-2T]_[T-1A]_H3.1_A3.1_F3.1_T3.2_[T9A] (ssRNA)
RNA: B1 RNA with G28U, G29A, G39A
B16: Id_ii_S2_P3E.2_K3.1_C3.2_[C-2G]_H3.1_A3.1_F3.1_T3.2_[T9C]_[A10C] (ssRNA)
RNA: B1 RNA with G29U, A38C, G39C
B17: Id_ii_S2_P3E.2_K3.1_C3.2_[C-2T]_[T-1A]_H3.1_A3.1_F3.1_T3.2_[A10C] (ssRNA)
RNA: B1 RNA with G28U, G29A, A38U, G39C
B18: Id_ii_S2_P3E.2_K3.1_C3.2_[C-2T]_[T-1C]_H3.1_A3.1_F3.1_T3.2_[T9C] (ssRNA)
RNA: B1 RNA with G28U, G29C, A38C, G39A
B19: Id_ii_S2_P3E.2_K3.1_C3.2_[C-2T]_[T-1G]_H3.1_A3.1_F3.1_T3.2_[T9G]_[A10T] (ssRNA)
RNA: B1 RNA with G28U, A38G, G39U
B20: Id_ii_S2_P3E.2_K3.1_C3.2_[C-2T]_[T-1A]_H3.1_A3.1_F3.1_T3.2_[A10G] (ssRNA)
RNA: B1 RNA with G28U, G29A, A38U
B21: Id_ii_S2_P3E.2_K3.1_C3.2_[C-2T]_H3.1_A3.1_F3.1_T3.2_[T9G]_[A10T] (ssRNA)
RNA: B1 RNA with G28U, G29U, A38G, G39U
B22: Id_ii_S2_P3E.2_K3.1_C3.2_[C-2G]_H3.1_A3.1_F3.1_T3.2_[A10C] (ssRNA)
RNA: B1 RNA with G29U, A38U, G39C
B23: Id_ii_S2_P3E.2_K3.1_C3.2_[C-2T]_[T-1A]_H3.1_A3.1_F3.1_T3.2_[T9G]_[A10T] (ssRNA)
RNA: B1 RNA with G28U, G29A, A38G, G39U
B24: Id_ii_S2_P3E.2_K3.1_C3.2_[C-2T]_[T-1C]_H3.1_A3.1_F3.1_T3.2_[T9C]_[A10C] (ssRNA)
RNA: B1 RNA with G28U, G29C, A38C, G39C
B25: Id_ii_S2_P3E.2_K3.1_C3.2_[C-2G]_H3.1_A3.1_F3.1_T3.2_[A10T] (ssRNA)
RNA: B1 RNA with G29U, A38U, G39U
B26: Id_ii_S2_P3E.2_K3.1_C3.2_[C-2T]_[T-1A]_H3.1_A3.1_F3.1_T3.2_[T9C]_[A10T] (ssRNA)
RNA: B1 RNA with G28U, G29A, A38C, G39U
B27: Id_ii_S2_P3E.2_K3.1_C3.2_[C-2G]_[T-1C]_H3.1_A3.1_F3.1_T3.2_[A10T] (ssRNA)
RNA: B1 RNA with G29C, A38U, G39U
B28: Id_ii_S2_P3E.2_K3.1_C3.2_[C-2G]_[T-1C]_H3.1_A3.1_F3.1_T3.2_[T9C]_[A10G] (ssRNA)
RNA: B1 RNA with G29C, A38C
B29: Id_ii_S2_P3E.2_K3.1_C3.2_[C-2G]_H3.1_A3.1_F3.1_T3.2_[T9C]_[A10T] (ssRNA)
RNA: B1 RNA with G29U, A38C, G39U
B30: Id_ii_S2_P3E.2_K3.1_C3.2_[C-2T]_[T-1A]_H3.1_A3.1_F3.1_T3.2_[A10T] (ssRNA)
RNA: B1 RNA with G28U, G29A, A38U, G39U

Target: T1, PUF4 RNA-binding domain
Test: Mg; RNA-MaP; 20 mM Na-HEPES pH 7.4, 30 mM KOAc, 0.75 mM MgCl2, 0.1% Tween-20, 5% glycerol, 0.1 mg/mL BSA, 2 mM DTT; 25 C; 0.0125-409.6 nM protein
Conditions: tags: N-His6-TEV cleaved; C-SNAP kept, Cy3B-labelled; label: tethered on chip by stalled RNA polymerase

Binder | Kd [nM]
UCUCUUCGACACUUAUUAUCUCUCUU (ssRNA) [Id_ii_S1_P5E.4_K5.3_C5.2_[T-1G]_H5.3_A5.1_F5.1_T5.2_[A12C]] | > 2300
UCUCUUUGUAUUAUAGUCUCUU (ssRNA) [Ic_S1_P5E.1_K5.1_C5.1_H5.1_A5.1_F5.1_[T9A]_[A10G]_T5.1] | 0.924
UCUCUUCAACACUUAUUAGAUCUCUU (ssRNA) [Id_ii_S1_P5E.4_K5.3_C5.2_[T-1A]_H5.3_A5.1_F5.1_T5.2_[T11G]] | > 2300
UCUCUUCCACACUUAUUAAAUCUCUU (ssRNA) [Id_ii_S1_P5E.4_K5.3_C5.2_[T-1C]_H5.3_A5.1_F5.1_T5.2_[T11A]] | > 2300
UCUCUUCAACACUUAUUAUCUCUCUU (ssRNA) [Id_ii_S1_P5E.4_K5.3_C5.2_[T-1A]_H5.3_A5.1_F5.1_T5.2_[A12C]] | > 2300
UCUCUUCCACACUUAUUAAUUCUCUU (ssRNA) [Id_ii_S1_P5E.4_K5.3_C5.2_[T-1C]_H5.3_A5.1_F5.1_T5.2_[T11A]_[A12T]] | > 2300
UCUCUUCAACACUUAUUAGCUCUCUU (ssRNA) [Id_ii_S1_P5E.4_K5.3_C5.2_[T-1A]_H5.3_A5.1_F5.1_T5.2_[T11G]_[A12C]] | > 2300
UCUCUUCAACACUUAUUAUGUCUCUU (ssRNA) [Id_ii_S1_P5E.4_K5.3_C5.2_[T-1A]_H5.3_A5.1_F5.1_T5.2_[A12G]] | > 2300
UCUCUUCUACACUUAUUAUAUCUCUU (ssRNA) [Id_ii_S1_P5E.4_K5.3_C5.2_H5.3_A5.1_F5.1_T5.2] | > 2300
UCUCUUCCACACUUAUUAACUCUCUU (ssRNA) [Id_ii_S1_P5E.4_K5.3_C5.2_[T-1C]_H5.3_A5.1_F5.1_T5.2_[T11A]_[A12C]] | > 2300
UCUCUUUGUAUUAUAUUCUCUU (ssRNA) [Ib_S1_P5E.1_K5.1_C5.1_H5.1_A5.1_F5.1_[T9A]_[A10T]_T5.1] | 1.1
UCUCUUCCACACUUAUUAUAUCUCUU (ssRNA) [Id_ii_S1_P5E.4_K5.3_C5.2_[T-1C]_H5.3_A5.1_F5.1_T5.2] | > 2300
UCUCUUCCACACUUAUUACGUCUCUU (ssRNA) [Id_ii_S1_P5E.4_K5.3_C5.2_[T-1C]_H5.3_A5.1_F5.1_T5.2_[T11C]_[A12G]] | > 2300
UCUCUUCGACACUUAUUAUUUCUCUU (ssRNA) [Id_ii_S1_P5E.4_K5.3_C5.2_[T-1G]_H5.3_A5.1_F5.1_T5.2_[A12T]] | > 2300
UCUCUUCAACACUUAUUAACUCUCUU (ssRNA) [Id_ii_S1_P5E.4_K5.3_C5.2_[T-1A]_H5.3_A5.1_F5.1_T5.2_[T11A]_[A12C]] | > 2300
UCUCUUUGUAUUAUACUCUCUU (ssRNA) [Ic_S1_P5E.1_K5.1_C5.1_H5.1_A5.1_F5.1_[T9A]_[A10C]_T5.1] | 2.48
UCUCUUCCACACUUAUUACUUCUCUU (ssRNA) [Id_ii_S1_P5E.4_K5.3_C5.2_[T-1C]_H5.3_A5.1_F5.1_T5.2_[T11C]_[A12T]] | > 2300
UCUCUUCAACACUUAUUAAAUCUCUU (ssRNA) [Id_ii_S1_P5E.4_K5.3_C5.2_[T-1A]_H5.3_A5.1_F5.1_T5.2_[T11A]] | > 2300
B1 | 11.8
B2 | 3.49

Binder | Kd [nM]
B3 | 26.5
B4 | 4.12
B5 | 1.17
B6 | 16.3
B7 | 7.87
B8 | 5.76
B9 | 5.15
B10 | 14.1
B11 | 1.33
B12 | 7.76
B13 | 6.53
B14 | 3.82
B15 | 16.9
B16 | 18
B17 | 6.09
B18 | 7.13
B19 | 3.09
B20 | 31.5
B21 | 2.77
B22 | 8.98

Binder | Kd [nM]
B23 | 7.14
B24 | 3.42
B25 | 2.02
B26 | 5.43
B27 | 1.77
B28 | 20.2
B29 | 44.5
B30 | 3.9
UCUCUUCAACACUUAUUACAUCUCUU (ssRNA) [Id_ii_S1_P5E.4_K5.3_C5.2_[T-1A]_H5.3_A5.1_F5.1_T5.2_[T11C]] | > 2300
UCUCUUCAACACUUAUUAAUUCUCUU (ssRNA) [Id_ii_S1_P5E.4_K5.3_C5.2_[T-1A]_H5.3_A5.1_F5.1_T5.2_[T11A]_[A12T]] | > 2300
UCUCUUCGUAUUAGUAUCUCUU (ssRNA) [Ib_S1_P5E.1_K5.1_C5.1_H5.1_[T1C]_A5.1_F5.1_[T8G]_T5.1] | > 2300
UCUCUUCAACACUUAUUACCUCUCUU (ssRNA) [Id_ii_S1_P5E.4_K5.3_C5.2_[T-1A]_H5.3_A5.1_F5.1_T5.2_[T11C]_[A12C]] | > 2300
UCUCUUCCACACUUAUUACAUCUCUU (ssRNA) [Id_ii_S1_P5E.4_K5.3_C5.2_[T-1C]_H5.3_A5.1_F5.1_T5.2_[T11C]] | > 2300
UCUCUUAGUAUUAGUAUCUCUU (ssRNA) [Ib_S1_P5E.1_K5.1_C5.1_H5.1_[T1A]_A5.1_F5.1_[T8G]_T5.1] | > 2300
UCUCUUCUACACUUAUUACCUCUCUU (ssRNA) [Id_ii_S1_P5E.4_K5.3_C5.2_H5.3_A5.1_F5.1_T5.2_[T11C]_[A12C]] | > 2300
UCUCUUCCACACUUAUUAGCUCUCUU (ssRNA) [Id_ii_S1_P5E.4_K5.3_C5.2_[T-1C]_H5.3_A5.1_F5.1_T5.2_[T11G]_[A12C]] | > 2300
UCUCUUCCACACUUAUUACCUCUCUU (ssRNA) [Id_ii_S1_P5E.4_K5.3_C5.2_[T-1C]_H5.3_A5.1_F5.1_T5.2_[T11C]_[A12C]] | > 2300
UCUCUUCGACACUUAUUAAAUCUCUU (ssRNA) [Id_ii_S1_P5E.4_K5.3_C5.2_[T-1G]_H5.3_A5.1_F5.1_T5.2_[T11A]] | > 2300
UCUCUUUGUAUUAUAAUCUCUU (ssRNA) [Ia_S1_P5E.1_K5.1_C5.1_H5.1_A5.1_F5.1_[T9A]_T5.1] | 2.37
